As a reminder, the Kd is the concentration at which binding is half-saturated. A word on the koff: it is a measure of how fast the partners let go of each other. Lower therefore signals slow dissociation.

Like-named read-outs stand apart in the source and are kept apart here. Non-standard residues stand in square brackets, D forms with d. No end group written: not given here. *: point of attachment. FITC = O=C1OC2(c3ccc(O)cc3Oc3cc(O)ccc32)c2ccc(NC(=S)*)cc21; pS = N[C@@H](COP(=O)(O)O)C(=O)O

The values below come from article PMC5770967, “Phosphorylation of the IDP KID Modulates Affinity for KIX by Increasing the Lifetime of the Complex” (Biophysical Journal, 2017).

Assay [1] addresses KIX KIX (UniProt P45481). Particulars: cited from earlier work.
The target in assay [2] is KIX KIX (UniProt P45481). The assay is described as follows: NMR. The conditions noted are these: cited from earlier work.
For assay [3], the target named is T1, KIX domain of CREB-binding protein (UniProt P45481 586-665). The assay is described as follows: fluorescence polarisation; fluorescence anisotropy equilibrium binding; 1 uM FITC-peptide with varying KIX, 30 min, 10 C; 100 mM sodium phosphate pH 7.5, 0.05% Tween. Particulars: both partners purified. On the technique in general: In fluorescence polarisation assays a small probe gives low polarisation when free and higher when bound to something large.

For assay [4], the target named is T1, KIX domain of CREB-binding protein. The assay is described as follows: stopped-flow fluorescence association kinetics; pseudo-first-order, KIX in 10-fold or larger excess over FITC-peptide; double exponential fits; 10 C; 100 mM sodium phosphate pH 7.5, 0.05% Tween. Particulars: both partners purified.
Assay [5] shares this target. The assay is described as follows: stopped-flow fluorescence out-competition dissociation kinetics; KIX:FITC-(p)KID complex rapidly mixed with unlabeled cMybTAD; single exponentials; asymptote gives k_diss; 10 C; 100 mM sodium phosphate pH 7.5, 0.05% Tween. The conditions noted are these: both partners purified.
Assay [6] shares this target. The description is as above. Particulars: both partners purified. The source holds these as a separate data set.

T1 sequence (P45481 586-665): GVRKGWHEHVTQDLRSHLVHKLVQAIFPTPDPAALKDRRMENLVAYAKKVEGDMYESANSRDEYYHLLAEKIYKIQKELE
Chain of KIX KIX (P45481 586-665): as above

As to pKID29 KID (from UniProt P16220), in the assay with KIX KIX [1], the dissociation constant Kd was 8.3 µM.

Take pKID KID (from UniProt P15337): the Kd with KIX KIX [2] was 1.3 µM.

B1: FITC-pKID (phosphorylated KID of CREB, residues 116-146, N-terminus labeled with FITC) (peptide, UniProt P15337-1 116-146, looked up)
peptide: {FITC}-DSVTDSQKRREILSRRP[pS]YRKILNDLSSDAP
notes: kinase inducible domain (KID) of CREB, UniProt P15337, residues 116-146 (31 residues), phosphorylated at S133; source: synthetic peptide, bought: Biomatik
Turning to B1, binding in assay [3] was put at a Kd of 0.11 µM. In addition, in assay [4], the “k_ass,fast (fast phase of association)” value turned out to be 7.3e+06 ± 300000 M⁻¹ s⁻¹ and the “k_ass,slow (slow phase of association)” value came to 24.2 ± 1.4 s⁻¹. Also, the “half-life of the complex” value in assay [5] is around 1 s. Moreover, the koff in assay [6] amounted to 0.81 ± 0.01 s⁻¹.

B2: FITC-KID (kinase inducible domain of CREB, residues 116-146, unphosphorylated, N-terminus labeled with FITC) (peptide, UniProt P15337-1 116-146, looked up)
peptide: {FITC}-DSVTDSQKRREILSRRPSYRKILNDLSSDAP
notes: also called unphosphorylated KID; source: synthetic peptide, bought: Biomatik
Take B2: in assay [3], binding was put at a Kd of 29 ± 1 µM. Further, in assay [4], the “k_ass,fast (fast phase of association)” value was 7.6e+06 ± 800000 M⁻¹ s⁻¹ and the “k_ass,slow (slow phase of association)” value turned out to be 21.2 ± 2.4 s⁻¹. The “half-life of the complex” value in assay [5] was around 0.01 s. Besides, the koff in assay [6] is 66.3 ± 4.9 s⁻¹.

B3: FITC-KID-S133E (KID of CREB, residues 116-146, S133E, N-terminus labeled with FITC) (peptide, UniProt P15337-1 116-146, looked up)
peptide: {FITC}-DSVTDSQKRREILSRRPEYRKILNDLSSDAP
notes: kinase inducible domain (KID) of CREB, UniProt P15337, residues 116-146, with S133E; also called the phosphomimetic; source: synthetic peptide, bought: Biomatik
Molecule B3 showed a Kd in assay [3] of 12.3 ± 0.5 µM. Further, in assay [4], the “k_ass,fast (fast phase of association)” value was found to be 4.4e+06 ± 200000 M⁻¹ s⁻¹ and the “k_ass,slow (slow phase of association)” value was found to be 17 ± 1 s⁻¹. The off-rate (koff) in assay [6] worked out at 35.6 ± 2.2 s⁻¹.
